The nature of the data set: protein stability index of a GFP-peptide fusion (GPS, HEK-293T) (PSI 1-6); higher = more stable. The settings on record: c terminus: a fixed tail appended.

± gives the standard deviation.
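Further: 24-mer peptide tiles fused after GFP, lentivirally expressed, FACS-sorted into six equal bins by GFP/DsRed ratio, decoded by Illumina sequencing, PSI is the read-weighted mean bin number.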

Regarding EGRPGAATFHVGGGPAQNAPHQQP [TFE3], the protein stability index by setting is: (treatment: DMSO) 4.79 ± 0.17; (treatment: MLN4924 1 uM, 8 h) 4.8 ± 0.24.

Regarding EHGEKIYFFCENDAEFLCVFCREG [TRIM15], the protein stability index reads like this: (treatment: DMSO) 2.36 ± 0.082; (treatment: MLN4924 1 uM, 8 h) 2.53 ± 0.42.

In the case of EHIADALRAIDFGTDEEEEEFIEE [TRIM63], the protein stability index runs as follows: (treatment: DMSO) 5.34 ± 0.2; (treatment: MLN4924 1 uM, 8 h) 5.36 ± 0.32.

Regarding EICLWGRHIFMGYLESETETTEAI [ACSBG2], the protein stability index was 2.55 ± 0.072 (treatment: DMSO) and 3.05 ± 0.29 (treatment: MLN4924 1 uM, 8 h).

Take EIFQKPFQTLMFLVRDWSFPYEYS [ATL3]: the protein stability index runs as follows: (treatment: DMSO) 2.73 ± 0.56; (treatment: MLN4924 1 uM, 8 h) 3.52 ± 0.089.

In the case of EILDYIFSGQIRLNEDTIQDVVQA [GAN], the protein stability index reads like this: (treatment: DMSO) 2.67 ± 0.55; (treatment: MLN4924 1 uM, 8 h) 2.23 ± 0.34.

Turning to EIPTGKKDHECSECGKTFIYNSHL [ZNF232], the protein stability index amounted to 3.7 ± 0.21 (treatment: DMSO) and 3.49 ± 0.28 (treatment: MLN4924 1 uM, 8 h).

As for EISGPLTSANKITLVSSGSGTMGA [FLOT1], the protein stability index (treatment: DMSO) amounted to 3.46 ± 0.046 and the protein stability index (treatment: MLN4924 1 uM, 8 h) was determined as 3.5 ± 0.26.

Take EKIQQDADSVITVGRGEVVTVRVP [ACBD3]: the protein stability index (treatment: DMSO) was 4.55 ± 0.16 and the protein stability index (treatment: MLN4924 1 uM, 8 h) stood at 4.63 ± 0.14.

EKRAKRLSSAPSSRAEPIRTTVFQ [ZMAT5]: the protein stability index was 3.74 ± 0.54 (treatment: DMSO) and 3.86 ± 0.061 (treatment: MLN4924 1 uM, 8 h).

As to EKSGFSQHQNKSPPKVKAEDGMQC [DLC1], the protein stability index by setting is: (treatment: DMSO) 5.19 ± 0.33; (treatment: MLN4924 1 uM, 8 h) 5.22 ± 0.13.

With EKTQDDLMKHQTNISELKRTFLET [EPB41L3], the protein stability index turned out to be 4.18 ± 0.68 (treatment: DMSO) and 4.2 ± 0.31 (treatment: MLN4924 1 uM, 8 h).

As to ELAEIFRASGEHVTDEEIESLMKD [TNNC2], the protein stability index by setting is: (treatment: DMSO) 5 ± 0.41; (treatment: MLN4924 1 uM, 8 h) 5.34 ± 0.33.

Regarding ELDSSSSLCVLVSTVGKLCRLINE [CEP70], the protein stability index was 3.73 ± 0.53 (treatment: DMSO) and 3.6 ± 0.35 (treatment: MLN4924 1 uM, 8 h).

Regarding ELTNGVINAAFMLLFKDLIKLFAC [SNAP91], the protein stability index was 3.57 ± 0.5 (treatment: DMSO) and 3.14 ± 0.57 (treatment: MLN4924 1 uM, 8 h).

As for EMLAAACQMFLGKTEAEIAHIALE [FLOT1], the protein stability index by setting is: (treatment: DMSO) 3.15 ± 0.81; (treatment: MLN4924 1 uM, 8 h) 2.78 ± 0.34.

Sequence EMSKDALPEKACQLDSRYWRITNA [FBXO3] showed a protein stability index (treatment: DMSO) of 3.55 ± 0.24 and a protein stability index (treatment: MLN4924 1 uM, 8 h) of 3.5 ± 0.16.

ENHPDVFSDSSMDHFQKFLPTVGG [MYOZ1] gave a protein stability index (treatment: DMSO) of 2.99 ± 0.5 and a protein stability index (treatment: MLN4924 1 uM, 8 h) of 3.34 ± 0.53.

On to ENIEVKEGGLYFERRPVAQSTDGA [SPSB2], for which the protein stability index stood at 4.55 ± 0.27 (treatment: DMSO) and 4.66 ± 0.18 (treatment: MLN4924 1 uM, 8 h).

ENIKGYYIIIVPLKKSRGKFIKPW [PTPRD]: the protein stability index by setting is: (treatment: DMSO) 2.67 ± 0.86; (treatment: MLN4924 1 uM, 8 h) 1.86 ± 0.45.

As to ENVVHGHILAAEQLSRDSTLGGKA [NSDHL], the protein stability index was determined as 4.52 ± 0.11 (treatment: DMSO) and 4.6 ± 0.3 (treatment: MLN4924 1 uM, 8 h).

As for ENYHKLRRSSSKCIHDHHCGSQLS [NETO1], the protein stability index by setting is: (treatment: DMSO) 3.1 ± 0.27; (treatment: MLN4924 1 uM, 8 h) 3.26 ± 0.4.

For EPLRSEILSGKFTILNVRDPTGAS [PTPN9], the protein stability index amounted to 3.65 ± 0.098 (treatment: DMSO) and 3.58 ± 0.16 (treatment: MLN4924 1 uM, 8 h).

On to EPSHSVKVHTVPKPGKGADLSKPP [ATE1], for which the protein stability index is, setting by setting: (treatment: DMSO) 4.96 ± 0.22; (treatment: MLN4924 1 uM, 8 h) 4.96 ± 0.27.

Take EQRADPNAKAHCGATALHFAAEAG [FEM1B]: the protein stability index by setting is: (treatment: DMSO) 4.03 ± 0.18; (treatment: MLN4924 1 uM, 8 h) 3.98 ± 0.34.

In the case of EQREWVLKSSILIAMAVYTYLRLI [INTS3], the protein stability index turned out to be 2.6 ± 0.59 (treatment: DMSO) and 2.59 ± 0.45 (treatment: MLN4924 1 uM, 8 h).

Take ERCLHMFLQEEAIDRNYVPGKSLA [SNX12]: the protein stability index is, setting by setting: (treatment: DMSO) 2.97 ± 0.31; (treatment: MLN4924 1 uM, 8 h) 3.05 ± 0.26.

As to EREMAEIRDQMQQQLNDYEQLLDV [LMNB1], the protein stability index reads like this: (treatment: DMSO) 5.15 ± 0.17; (treatment: MLN4924 1 uM, 8 h) 5.09 ± 0.19.

Turning to ERFLELAPDFVGDILWEHLEQMIK [ETS2], the protein stability index is, setting by setting: (treatment: DMSO) 2.36 ± 0.58; (treatment: MLN4924 1 uM, 8 h) 2.89 ± 0.51.

As for ERVEALGQFVMKTRRTLKGHGNKV [GNB5], the protein stability index by setting is: (treatment: DMSO) 3.09 ± 0.7; (treatment: MLN4924 1 uM, 8 h) 3.52 ± 0.14.

Consider ERWLQKQGKYSGVGLLDHMVSIYL [RNF180], for which the protein stability index by setting is: (treatment: DMSO) 2.3 ± 0.39; (treatment: MLN4924 1 uM, 8 h) 2.59 ± 0.28.

ESKDYLSLYLLLVSCPKSEVRAKF [SPOPL]: the protein stability index reads like this: (treatment: DMSO) 2.92 ± 0.38; (treatment: MLN4924 1 uM, 8 h) 2.82 ± 0.63.

Regarding ESKLLGSNSSRMYFTQTLLPGLAG [MLH1], the protein stability index runs as follows: (treatment: DMSO) 3.12 ± 0.24; (treatment: MLN4924 1 uM, 8 h) 3.12 ± 0.5.

Sequence ESKTDGDDTETVPSEQSHASGKLR [TCF25] yielded a protein stability index (treatment: DMSO) of 5.54 ± 0.26 and a protein stability index (treatment: MLN4924 1 uM, 8 h) of 5.56 ± 0.4.

For ESNAAQYSPEALASIQNHVRKREA [EFHC1], the protein stability index (treatment: DMSO) stood at 4.87 ± 0.24 and the protein stability index (treatment: MLN4924 1 uM, 8 h) came to 4.7 ± 0.27.

Regarding ESQKANQCAVLIYTSGTTGIPKGV [ACSBG2], the protein stability index by setting is: (treatment: DMSO) 2.13 ± 0.26; (treatment: MLN4924 1 uM, 8 h) 2.52 ± 0.41.

ETDSEMNSQESRSDLEDMEEEEGT [SMG5]: the protein stability index by setting is: (treatment: DMSO) 5.74 ± 0.16; (treatment: MLN4924 1 uM, 8 h) 5.69 ± 0.074.

Turning to ETFRQQFRQFGYQDSPGPHEALSR [ZNF396], the protein stability index reads like this: (treatment: DMSO) 3.34 ± 0.22; (treatment: MLN4924 1 uM, 8 h) 3.68 ± 0.043.

With ETQNAFLNERKQASAIKKEELVAR [CHGB], the protein stability index turned out to be 3.57 ± 0.12 (treatment: DMSO) and 3.77 ± 0.24 (treatment: MLN4924 1 uM, 8 h).

In the case of ETSPLPGMLAPAAGPAFDSDPEIS [PPFIA4], the protein stability index is, setting by setting: (treatment: DMSO) 5.48 ± 0.29; (treatment: MLN4924 1 uM, 8 h) 5.38 ± 0.31.

ETYHQQGQCQVLVQRSPWLMMRMG [TCAP]: the protein stability index stood at 2.18 ± 0.22 (treatment: DMSO) and 2.23 ± 0.35 (treatment: MLN4924 1 uM, 8 h).

Consider EVDPVRRAVRDRNLLRDDRVLQNL [CCND2], for which the protein stability index by setting is: (treatment: DMSO) 4.1 ± 0.2; (treatment: MLN4924 1 uM, 8 h) 4.01 ± 0.27.

EVLVGKTIEQSLLEVMEEEELANL [RSPH3]: the protein stability index reads like this: (treatment: DMSO) 4.89 ± 0.3; (treatment: MLN4924 1 uM, 8 h) 4.91 ± 0.23.

As for EVPLISFTGSQPTAERITQLSAPH [ALDH8A1], the protein stability index (treatment: DMSO) was 3.86 ± 0.35 and the protein stability index (treatment: MLN4924 1 uM, 8 h) came out at 3.96 ± 0.43.

For the sequence EVTLSEAGSTAGAAETRGAVEGAA [PALM], the protein stability index came out at 5.43 ± 0.39 (treatment: DMSO) and 5.43 ± 0.17 (treatment: MLN4924 1 uM, 8 h).

As for EVVVAESELQKELKKVKTAHSNDG [DPCD], the protein stability index turned out to be 5.18 ± 0.25 (treatment: DMSO) and 5.25 ± 0.32 (treatment: MLN4924 1 uM, 8 h).

Sequence EYQPLQIETYGPHVPELEMLGRLG [MNAT1] displayed a protein stability index (treatment: DMSO) of 3.18 ± 0.28 and a protein stability index (treatment: MLN4924 1 uM, 8 h) of 3.76 ± 0.31.

As for FDHPIPRVFQNRFSTQYRCFSVSM [UFD1], the protein stability index was 2.89 ± 1 (treatment: DMSO) and 2.45 ± 0.6 (treatment: MLN4924 1 uM, 8 h).

For the sequence FDKKDRRALHWAAYMGHLDVVALL [ANKRD44], the protein stability index turned out to be 2.61 ± 0.82 (treatment: DMSO) and 2.24 ± 0.22 (treatment: MLN4924 1 uM, 8 h).

FDVVVILTCSLSFLLCARSLLRGF [MCOLN1]: the protein stability index runs as follows: (treatment: DMSO) 3.38 ± 0.31; (treatment: MLN4924 1 uM, 8 h) 2.98 ± 0.54.

For FFASGFKRAFKIKDFANTIPGHGG [CDS2], the protein stability index by setting is: (treatment: DMSO) 1.95 ± 0.11; (treatment: MLN4924 1 uM, 8 h) 2.33 ± 0.2.

Turning to FFYGETVTDYFFTLVQREEPLRIL [CDS2], the protein stability index is, setting by setting: (treatment: DMSO) 2.73 ± 0.66; (treatment: MLN4924 1 uM, 8 h) 2.17 ± 0.46.

As for FGELMRKLWNPRNFKAHVSPHEML [USP39], the protein stability index is, setting by setting: (treatment: DMSO) 2.51 ± 0.43; (treatment: MLN4924 1 uM, 8 h) 2.25 ± 0.084.

For the origin of these results see the supplement of paper PMC10567573.
